T1: hCD32a-H131 (human, UniProt P12318 34-217, limits assumed)
T1 construct: His-tagged; H131 allotype; also called FcγRIIa-H131
T1 sequence (looked up): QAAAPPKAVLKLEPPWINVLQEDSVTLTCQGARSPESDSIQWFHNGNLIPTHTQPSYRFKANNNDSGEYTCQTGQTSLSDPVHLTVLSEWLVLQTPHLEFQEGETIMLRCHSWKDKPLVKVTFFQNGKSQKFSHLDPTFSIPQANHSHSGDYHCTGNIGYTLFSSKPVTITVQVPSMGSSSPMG

T2: hCD32a-R131 (human, UniProt P12318 34-217, limits assumed)
T2 construct: His-tagged; R131 allotype; also called FcγRIIa-R131
T2 sequence (looked up): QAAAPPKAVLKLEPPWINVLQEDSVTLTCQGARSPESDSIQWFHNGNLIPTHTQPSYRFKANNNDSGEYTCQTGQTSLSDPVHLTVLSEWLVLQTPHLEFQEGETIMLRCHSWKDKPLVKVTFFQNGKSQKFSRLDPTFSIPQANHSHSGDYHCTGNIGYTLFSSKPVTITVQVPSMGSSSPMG

T3: hCD32b (human, UniProt P31994 43-217, limits assumed)
T3 construct: His-tagged; also called FcγRIIb
T3 sequence (looked up): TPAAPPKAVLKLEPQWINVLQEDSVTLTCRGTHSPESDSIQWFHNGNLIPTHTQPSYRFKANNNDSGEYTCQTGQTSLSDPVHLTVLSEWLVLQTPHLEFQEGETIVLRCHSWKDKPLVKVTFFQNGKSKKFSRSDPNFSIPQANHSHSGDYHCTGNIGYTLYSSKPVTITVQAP


Legend:
[1] = biological target: T4, human-CD40-monomer protein (human, UniProt P25942 21-193, limits assumed); assay: SPR, Ab captured on protein A, hCD40 monomer 500 and 50 nM, 1:1 fit; purified
T4 construct: Soluble monomer generated in house, used as SPR analyte; also called hCD40; hCD40-monomer
Description: (§1) Titer analysis was performed using Biolayer Interferometry (BLI) on an Octet RED instrument (Fortebio) by capturing antibodies from supernatant using protein A sensor tips and measuring capture response with respect to a standard curve obtained using a control antibody sample. SPR data were obtained by capturing antibodies on a protein A surface and testing the binding of 500 nM and 50 nM injections of human-CD40 analyte, using a BIAcore™ T200 instrument (GE Healthcare). The kinetic data for the two concentrations of hCD40-monomer were fit to a 1:1 Langmuir model, to yield estimates of the kinetic and affinity values for these interactions, and for comparison of the different molecules.

[2] = biological target: T5, human CD40 on cells (tonsillar B cells, immature dendritic cells, Ramos-Blue cells) (human, UniProt P25942 21-277); assay: cell-based or functional assay
[3] = biological target: T4, human-CD40-monomer protein; assay: SPR, Ab captured on protein A, hCD40 monomer 500 and 50 nM, 1:1 fit; supernatant
Description: as §1

[4] = biological target: T4, human-CD40-monomer protein; assay: SPR, purified Ab captured on protein A, hCD40 monomer 500-3.9 nM, 25 C, 1:1 Langmuir fit
Description: (§2) Based on the sequences, titer, and SPR binding data, antibodies were selected for larger scale expression, purification, and further characterization. SPR analysis using purified antibodies was performed by capturing antibodies on a protein A surface, with binding of a 500-3.9 nM (2:1) dilution series of human-CD40 monomer, at either 25° C. or 37° C. in PBS-T pH 7.1 buffer; the titration data was fit to a 1:1 Langmuir model.
(§3) SPR data are fit to a 1:1 Langmuir model using BIAcore™ T200 evaluation software to obtain values for the association rate constant (ka), dissociation rate constant (kd) and dissociation constant (KD).

[5] = biological target: T4, human-CD40-monomer protein; assay: SPR, purified Ab captured on protein A, hCD40 monomer 500-3.9 nM, 37 C, 1:1 Langmuir fit
Description: as §2, §3

[6] = biological target: T5, human CD40 on cells (tonsillar B cells, …); assay: cell-based or functional assay; remark: listed apart in the source
hCD64 [7] = biological target: T6, hCD64 (human, UniProt P12314 16-288, limits assumed); assay: SPR, Ab captured on protein A, hCD64-His 10 µM-1.5 nM as analyte
T6 construct: His-tagged; also called hFcγRI
Description: (§4) FcγR binding SPR: FcγR binding can be measured in vitro using purified FcγRs using methods, such as BIAcore™ surface plasmon resonance (SPR). One method tests the binding of purified His-tagged FcγR proteins (FcγR-his) to antibodies that are captured on a sensor surface containing protein A which has been immobilized using standard ethyl(dimethylaminopropyl) carbodiimide (EDC)/N-hydroxysuccinimide (NHS) chemistry with ethanolamine blocking. These experiments are performed on a BIAcore™ T200 instrument (GE Healthcare, Marlborough, MA) at 25° C. For example, samples of purified antibody at 3 μg/ml concentration are first captured on the immobilized protein A surface using a 15 second (s) contact time at 10 μl/min flow rate. This is followed by the binding of purified FcγR-His proteins at various concentrations, such as 10 μM-1.5 nM (2:1 dilution series) or 10 μM-13.7 nM (2:1 dilution series), using 120 s association and dissociation times at a flow rate of 30 μ/min. All steps are performed in a running buffer consisting of 10 mM NaPO₄, 130 mM NaCl, 0.05% p20 (PBS-T) pH 7.1. FcγR proteins tested in these studies include the “high affinity” FcγR CD64 (hFcγRI), as well as the “low affinity” FcγRs CD32a-H131 (FcγRIIa-H131), CD32a-R131 (FcγRIIa-R131), CD32b (FcγRIIb), CD16a-V158 (FcγRIIIa-V158), and CD16a-F158 (FcγRIIIa-F158), which were expressed and purified in house. […]

hCD64 [8] = biological target: T6, hCD64; assay: SPR, antibody captured on protein A, His-tagged FcγR as analyte; 1:1 Langmuir fit
Description: as §4

hCD32a-H131 = biological target: T1, hCD32a-H131; assay: SPR, antibody captured on protein A, His-tagged FcγR as analyte; 1:1 steady state fit
Description: (§5) FcγR binding SPR: FcγR binding can be measured in vitro using purified FcγRs using methods, such as BIAcore™ surface plasmon resonance (SPR). One method tests the binding of purified His-tagged FcγR proteins (FcγR-his) to antibodies that are captured on a sensor surface containing protein A which has been immobilized using standard ethyl(dimethylaminopropyl) carbodiimide (EDC)/N-hydroxysuccinimide (NHS) chemistry with ethanolamine blocking. These experiments are performed on a BIAcore™ T200 instrument (GE Healthcare, Marlborough, MA) at 25° C. For example, samples of purified antibody at 3 μg/ml concentration are first captured on the immobilized protein A surface using a 15 second (s) contact time at 10 μl/min flow rate. This is followed by the binding of purified FcγR-His proteins at various concentrations, such as 10 μM-1.5 nM (2:1 dilution series) or 10 μM-13.7 nM (2:1 dilution series), using 120 s association and dissociation times at a flow rate of 30 μ/min. All steps are performed in a running buffer consisting of 10 mM NaPO₄, 130 mM NaCl, 0.05% p20 (PBS-T) pH 7.1. FcγR proteins tested in these studies include the “high affinity” FcγR CD64 (hFcγRI), as well as the “low affinity” FcγRs CD32a-H131 (FcγRIIa-H131), CD32a-R131 (FcγRIIa-R131), CD32b (FcγRIIb), CD16a-V158 (FcγRIIIa-V158), and CD16a-F158 (FcγRIIIa-F158), which were expressed and purified in house. SPR data are fit to either a 1:1 Langmuir model, or a 1:1 steady state model using BIAcore™ T200 evaluation software to obtain values for the association rate constant (ka), dissociation rate constant (kd) and dissociation constant (KD).

hCD32a-R131 = biological target: T2, hCD32a-R131; assay: as above
Description: as §5

hCD32b = biological target: T3, hCD32b; assay: as above
Description: as §5

hCD16a-V158 = biological target: T7, hCD16a-V158 (human, UniProt P08637 17-208); assay: as above
T7 construct: His-tagged; V158 allotype; also called FcγRIIIa-V158
Description: as §5

hCD16a-F158 = biological target: T8, hCD16a-F158 (human, UniProt P08637 17-208); assay: as above
T8 construct: His-tagged; F158 allotype; also called FcγRIIIa-F158
Description: as §5

hCD64 [9] = biological target: T6, hCD64; assay: SPR, antibody captured on protein A, His-tagged hCD64 as analyte; %Rmax against hCD64 concentration
Description: as §4

T5 sequence (P25942 21-277 limits assumed): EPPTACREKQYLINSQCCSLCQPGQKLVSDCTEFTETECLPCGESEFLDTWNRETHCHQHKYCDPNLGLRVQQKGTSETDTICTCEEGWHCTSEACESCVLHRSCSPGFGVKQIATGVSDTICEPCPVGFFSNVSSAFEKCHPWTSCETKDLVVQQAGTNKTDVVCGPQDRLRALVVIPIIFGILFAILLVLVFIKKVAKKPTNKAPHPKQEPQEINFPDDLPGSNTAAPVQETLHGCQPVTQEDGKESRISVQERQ
T6 sequence (P12314 16-288 limits assumed): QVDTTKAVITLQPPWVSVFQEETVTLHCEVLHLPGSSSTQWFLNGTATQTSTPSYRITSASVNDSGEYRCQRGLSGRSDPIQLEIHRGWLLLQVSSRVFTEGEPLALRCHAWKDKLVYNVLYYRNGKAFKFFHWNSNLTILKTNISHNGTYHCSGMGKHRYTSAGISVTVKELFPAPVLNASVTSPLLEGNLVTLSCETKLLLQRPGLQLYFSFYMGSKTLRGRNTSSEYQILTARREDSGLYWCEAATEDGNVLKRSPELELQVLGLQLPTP
T4 sequence (P25942 21-193 limits assumed): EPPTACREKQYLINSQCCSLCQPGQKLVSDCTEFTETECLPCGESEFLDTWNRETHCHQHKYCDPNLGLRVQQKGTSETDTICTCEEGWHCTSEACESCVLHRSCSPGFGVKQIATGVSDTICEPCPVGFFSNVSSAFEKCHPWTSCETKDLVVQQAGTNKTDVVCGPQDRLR
T7 sequence (P08637 17-208 F176V limits assumed): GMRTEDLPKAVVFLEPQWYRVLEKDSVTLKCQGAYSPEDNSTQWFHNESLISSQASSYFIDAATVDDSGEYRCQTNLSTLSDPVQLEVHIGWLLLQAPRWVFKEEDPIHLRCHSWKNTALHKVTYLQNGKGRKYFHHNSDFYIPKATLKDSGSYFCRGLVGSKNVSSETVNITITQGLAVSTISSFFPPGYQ
T8 sequence (P08637 17-208 limits assumed): as the sequence (P08637 17-208 F176V limits assumed) above, with V160F counted along it

| Binder | Inhibition of B cell proliferation induced by soluble CD40L trimer, Average (IC50 ng/ml) [2] [ng/mL] | Kd [3] [nM] | koff [3] [s⁻¹] | kon [3] [M⁻¹ s⁻¹] | Kd [4] [nM] | koff [4] [s⁻¹] | kon [4] [M⁻¹ s⁻¹] | Kd [5] [nM] | koff [5] [s⁻¹] | kon [5] [M⁻¹ s⁻¹] | further results |
| --- | --- | --- | --- | --- | --- | --- | --- | --- | --- | --- | --- |
| Y1262-hIgG1f (antibody, Purified chimeric antibody with human wild-type IgG1f; also called purified chimeric Y1262; Y1632-hIgG1f) heavy: not shown VL: DIVMTQSHKFMSTSVGDRVSITCKASQDVSTAVAWYQQKPGQSPKLLIYSASYRYTGVPDRFTGSGYGTDFTFTISSVQAEDLAVYYCQQHYSTPWTFGGGTKLEIK | – | – | – | – | – | – | – | – | – | – | Kd [1]: 12 nM; koff [1]: 0.0055 s⁻¹; kon [1]: 480000 M⁻¹ s⁻¹ |
| Y12XX-hz42-P238K (antibody, human IgG1, kappa, V domains shown, also called Vh-hz14;Vk-hz3) VH: QVQLVQSGAEVKKPGSSVKVSCKASGYAFTSYWMHWVRQAPGQGLEWMGQINPTTGRSQYNEKFKTRVTITADKSTSTAYMELSSLRSEDTAVYYCARWGLQPFAYWGQGTLVTVSS VL: EIVMTQSPATLSVSPGERATLSCKASQDVSTAVAWYQQKPGQAPRLLIYSASYRYTGIPARFSGSGSGTEFTLTISSLQSEDFAVYYCQQHYSTPWTFGGGTKVEIKR | 12.1 | 3.5 | 0.00083 | 240000 | 2.3 | 0.00073 | 310000 | 5.5 | 0.0034 | 630000 | – |
| Y12XX-hz40-P238K (antibody, human IgG1, kappa, V domains shown, also called Vh-hz12;Vk-hz3) VH: QVQLVQSGAEVKKPGSSVKVSCKASGYAFTSYWMHWVRQAPGQGLEWMGQINPSQGRSQYNEKFKTRVTITADKSTSTAYMELSSLRSEDTAVYYCARWGLQPFAYWGQGTLVTVSS VL: EIVMTQSPATLSVSPGERATLSCKASQDVSTAVAWYQQKPGQAPRLLIYSASYRYTGIPARFSGSGSGTEFTLTISSLQSEDFAVYYCQQHYSTPWTFGGGTKVEIKR | 6 | 4.7 | 0.0011 | 240000 | 4.4 | 0.0013 | 290000 | 10.9 | 0.0057 | 520000 | – |
| Y12XX-hz28-P238K (antibody, human IgG1, kappa, also called Y12XX-hz28-IgG1-P238K; Y12XX-hx28-IgG1-P238K) heavy: not shown light: DIQMTQSPSFLSASVGDRVTITCKASQDVSTAVAWYQQKPGKAPKLLIYSASYRYTGVPSRFSGSGSGTDFTLTISSLQPEDFATYYCQQHYSTPWTFGGGTKVEIKRTVAAPSVFIFPPSDEQLKSGTASVVCLLNNFYPREAKVQWKVDNALQSGNSQESVTEQDSKDSTYSLSSTLTLSKADYEKHKVYACEVTHQGLSSPVTKSFNRGEC | 6.7 | 3.5 | 0.00062 | 180000 | 3.1 | 0.00069 | 220000 | 8.5 | 0.0037 | 440000 | Potency for inhibition of CD40L expressing CHO cells stimulation of B cell proliferation (IC50 ng/ml) [6]: 38.1 ng/mL; fold weaker binding compared to wild type (control-IgG1) (hCD64 [7]): 125 fold; Kd (hCD64 [8]): 25 nM; Kd (hCD32a-H131): > 50000 nM; Kd (hCD32a-R131): > 50000 nM; Kd (hCD32b): > 50000 nM; Kd (hCD16a-V158): > 50000 nM; Kd (hCD16a-F158): > 50000 nM; EC50 (read off the curve) (hCD64 [9]): ~30 nM |

Source: patent US20240124597A1 (Bristol-Myers Squibb, published 2024)
